Patent US20160097044A1, “Antimicrobial Enzyme Fusions Reduce Resistance and Kill Intracellular Staphylococcus aureus” (The United States of America, as Represented by the …, priority 2014, published 2016)

B1: K: 495 amino-acid staphylococcal phage K endolysin LysK, C-terminal His6 tag; SEQ ID NO:3 (protein)
chain: MAKTQAEINKRLDAYAKGTVDSPYRVKKATSYDPSFGVMEAGAIDADGYYHAQCQDLITDYVLWLTDNKVRTWGNAKDQIKQSYGTGFKIHENKPSTVPKKGWIAVFTSGSYEQWGHIGIVYDGGNTSTFTILEQNWNGYANKKPTKRVDNYYGLTHFIEIPVKAGTTVKKETAKKSASKTPAPKKKATLKVSKNHINYTMDKRGKKPEGMVIHNDAGRSSGQQYENSLANAGYARYANGIAHYYGSEGYVWEAIDAKNQIAWHTGDGTGANSGNFRFAGIEVCQSMSASDAQFLKNEQAVFQFTAEKFKEWGLTPNRKTVRLHMEFVPTACPHRSMVLHTGFNPVTQGRPSQAIMNKLKDYFIKQIKNYMDKGTSSSTVVKDGKTSSASTPATRPVTGSWKKNQYGTWYKPENATFVNGNQPIVTRIGSPFLNAPVGGNLPAGATIVYDEVCIQAGHIWIGYNAYNGNRVYCPVRTCQGVPPNQIPGVAWGVFKLEHHHHHH
modifications: C-terminal His6 tag; Phage K
B2: L-K: LysK lytic domains inserted between lysostaphin's M23 endopeptidase domain and SH3b cell wall binding domain; SEQ ID NO:7, protein SEQ ID NO:8 (protein)
chain: MAATHEHSAQWLNNYKKGYGYGPYPLGINGGMHYGVDFFMNIGTPVKAISSGKIVEAGWSNYGGGNQIGLIENDGVHRQWYMHLSKYNVKVGDYVKAGQIIGWSGSTGYSTAPHLHFQRMVNSFSNSTAQDPMPFLKSAGYGKAGGTVTPTPNTGLDAKTQAEINKRLDAYAKGTVDSPYRVKKATSYDPSFGVMEAGAIDADGYYHAQCQDLITDYVLWLTDNKVRTWGNAKDQIKQSYGTGFKIHENKPSTVPKKGWIAVFTSGSYEQWGHIGIVYDGGNTSTFTILEQNWNGYANKKPTKRVDNYYGLTHFIEIPVKAGTTVKKETAKKSASKTPAPKKKATLKVSKNHINYTMDKRGKKPEGMVIHNDAGRSSGQQYENSLANAGYARYANGIAHYYGSEGYVWEAIDAKNQIAWHTGDGTGANSGNFRFAGIEVCQSMSASDAQFLKNEQAVFQFTAEKFKEWGLTPNRKTVRLHMEFVPTACPHRSMVLHTGFNPVTQGRPSQAIMNKLKDYFIKQIKNYMDKGTSSSTVVKDGKTSSASLDTVTPTPNTGWKTNKYGTLYKSESASFTPNTDIITRTTGPFRSMPQSGVLKAGQTIHYDEVMKQDGHVWVGYTGNSGQRIYLPVRTWNKSTNTLGVLWGTIKLEHHHHHH
modifications: Staphylococcus simulans & Phage K

Columns and labels:
[1] = test system: S. aureus ALR; test: Minimum Inhibitory Concentration (MIC) assay; type: cell-based; conditions: for Minimum Inhibitory Conc. (median μg/ml): S. aureus ALR
Description: (§1) The Minimum Inhibitory Concentrations (MIC) of each protein for multiple S. aureus strains was determined as previously described (Jones et al. 1985. In: Manual of Clinical Microbiology, Eds. Balows et al. American Society of Microbiology, Washington D.C., pp. 972-977) with the following modifications. Enzymes were serially diluted two fold across a 96 well plate, such that after dilution, 50 μl of the enzyme solution in 300 mM NaCl, 50 mM NaH2PO4, 30% glycerol pH 7.5, remained in each well. To each well was added 50 μl of TSB and 100 μl of S. aureus Newman in TSB (diluted to 5×10^6 cells/ml). The plates were incubated 20 h at 37° C. and read with a 96 well plate reader. MIC determination values were reported as the median of ≧4 replicates (Table 1).

[2] = test system: S. aureus Newbould 305; test: Minimum Inhibitory Concentration (MIC) assay; type: cell-based; conditions: Mastitis isolate S. aureus Newbould 305
Description: as §1

[3] = test system: S. chromogenes MP02; test: Minimum Inhibitory Concentration (MIC) assay; type: cell-based, Staphylococcus chromogenes; conditions: Mastitis isolate S. chromogenes MP02
[4] = test system: S. epidermidis MP04; test: Minimum Inhibitory Concentration (MIC) assay; type: cell-based, Staphylococcus epidermidis; conditions: Mastitis isolate S. epidermidis MP04
[5] = test system: S. simulans MP03; test: Minimum Inhibitory Concentration (MIC) assay; type: cell-based, Staphylococcus simulans; conditions: Mastitis isolate S. simulans MP03
[6] = test system: S. xylosus MP05; test: Minimum Inhibitory Concentration (MIC) assay; type: cell-based, Staphylococcus xylosus; conditions: Mastitis isolate S. xylosus MP05
[7] = test system: S. aureus strain Newman; test: Resistance development, plate lysis repeated exposure method; type: cell-based; conditions: not shown
Description: For the plate lysis assays, purified enzymes were serially diluted in saline lysis buffer (SLB; 150 mM NaCl 10 mM Tris buffer, pH 7.5) with 15% glycerol, to yield concentrations of 100, 10, 1, and 0.1 pmoles/10 μl. S. aureus Newman was cultivated in tryptic soy broth (TSB) to an OD600 nm=0.4-0.6. The bacterial cells were harvested and diluted to yield a suspension with an OD600 nm of 0.1. Tryptic soy agar (TSA) plates were flooded with 3 ml of the bacterial cell suspension. Excess culture was removed, and the plates were air dried at room temperature for ˜30 min in a laminar flow hood. 10 μl of each peptidoglycan hydrolase dilution was then spotted onto the air-dried lawn, allowed to air dry, and the culture plates incubated overnight at 37° C. The following day, plates were evaluated visually and photographed.
In the Plate lysis method, bacterial cells were scraped from a sub-lethal (not fully cleared) spot from a plate lysis assay (described above), and these ‘exposed’ cells were used to inoculate 5 ml of TSB and grown for 4-6 hours to generate a new culture and lawn for subsequent exposure. Bacteria were passaged in this assay for up to 10 consecutive days, at which time the S. aureus were tested in MIC assays. Plate lysis repeated exposure experiments were performed in duplicate.

[8] = test system: S. aureus strain ALR; test: Rat nasal colonization model; type: in vivo, Wistar rats; conditions: for reduction of nasal bacterial load (in words): equimolar concentrations, intranasally twice a day on days 5, 6, 7
Excerpt: FIGS. 1a-1c depict peptidoglycan hydrolase construct schematics, resistance development and effectiveness in eradicating S. aureus carriage in a rat colonization model. FIG. 1a is a schematic of the peptidoglycan hydrolase constructs. Domains: CHAP endopeptidase (CHAP, red box); N-acetylmuramoyl-L-alanine amidase (AMID, green box); M23 endopeptidase (PEP, blue oval); CBDs (LysK SH3b, gold diamond; lysostaphin SH3b, gold diamond with dot); protein transduction domain (PTD, blue circle); hexahistidine purification tag (His6). Domains are not to scale. Specific peptidoglycan cut sites are illustrated in FIG. 3a. FIG. 1b depicts in vitro antimicrobial resistance development. Engineered triple fusions K-L and L-K suppress antimicrobial resistance development compared to LysK (K), lysostaphin (L), or a combination of equimolar concentrations of both (L+K). Changes in Minimum Inhibitory Concentrations (MIC) are depicted as a fold-change at the tenth round of sublethal exposure compared to the first exposure, with the average fold-change of 4 replicates in red. Error bars=SEM. First exposure MICs: Lysostaphin, 0.77 μg/ml (27 nM); LysK, 47 μg/ml (840 nM); Lysostaphin and LysK (L+K) in combination 0.2 μg/ml (7 nM and 3 nM, respectively); triple fusion K-L, 7 μg/ml (97 nM); triple fusion L-K, 7.8 μg/ml (107 nM). FIG. 1c depicts reduction in colonization in a rat nasal carriage model. Rats were inoculated with S. aureus strain ALR on Day 1. After 5 days, the rats were treated twice daily for 3 days with 20 μl of a 10 mg/ml solution of each enzyme. The rat noses were excised on day 10, homogenized, and quantitative cultures were performed. Each point represents the CFU recovered from an individual rat. Bars indicate the median CFU/nose recovered from treated rats. […] Data were compiled from five independent experiments. Lyso=commercially purchased lysostaphin (AMBI, Tarrytown, N.Y.). Statistical comparisons were made with the Mann-Whitney test. SEQ ID NOs of depicted peptidoglycan hydrolase constructs: Lysostaphin (SEQ ID NO:1); Lysostaphin-PTD1-4, 6-12 (SEQ ID NOs:9, 11, 13, 15, 17, 19, 21, 23, 25, 27, 29, respectively); LysK (SEQ ID NO:3); LysK-PTD1-11 (SEQ ID NOs: 31, 33, 35, 37, 39, 41, 43, 45, 47, 49, 51, respectively); LysK-Lysostaphin Fusion K-L (SEQ ID NO:5); K-L-PTD1-4, 6-11 (SEQ ID NOs:53, 55, 57, 59, 61, 63, 65, 67, 69, 71, respectively); Lysostaphin-LysK Fusion L-K (SEQ ID NO:7).
Reduction in nasal colonization was observed when rats were challenged on day 0 with 10^7 CFU S. aureus strain ALR and then treated twice per day on days 5, 6, and 7 with 10 μl of 2% mupirocin calcium ointment (Bactroban Nasal) or petrolatum/softisan placebo. Noses from rats were homogenized and cultured quantitatively on day 10. Each point represents the CFU recovered from an individual rat, and the data were compiled from two independent experiments. Data were analyzed by the Mann-Whitney test, and horizontal lines represent median values. Mupirocin reduced colonization ˜98% compared to the placebo control.
The rat nasal colonization model is an adaptation of the mouse nasal colonization model that we described previously (Schaffer et al. 2006. Infect. Immun. 74:2145-2153). All animal experiments were conducted in accordance with a protocol approved by the appropriate Institutional Animal Care and Use Committees. Wistar rats (5 to 6 wks of age) were obtained from Charles River Laboratories (Wilmington, Mass.) and given food and water ad libitum. The animals were housed two per cage in a modified barrier facility under viral antibody-free conditions. The rats were given drinking water containing streptomycin sulfate (0.5 g/liter; Sigma) 1 day prior to bacterial inoculation and for the course of the experiment. The drinking water and cages were changed three times per week. […]

Molecule	Minimum Inhibitory Conc. (median μg/ml) [1] [µg/mL]	Minimum Inhibitory Conc. (median μg/ml) [2] [µg/mL]	Minimum Inhibitory Conc. (median μg/ml) [3] [µg/mL]	Minimum Inhibitory Conc. (median μg/ml) [4] [µg/mL]	Minimum Inhibitory Conc. (median μg/ml) [5] [µg/mL]	Minimum Inhibitory Conc. (median μg/ml) [6] [µg/mL]	increased resistance during 10 rounds of sub-lethal exposure in plate lysis assays [7]	reduction of nasal bacterial load (in words) [8]	MIC for S. aureus ALR (comparison for post-treatment isolates) ([1]; N=8, value ± spread) [µg/mL]	decrease in CFU/nose (nasal colonization) compared to rats treated with buffer ([8]; 200 μg intranasally twice a day on days 5, 6, 7, noses cultured day 10) [%]	bacterial load reduction relative to either parental enzyme ([8]; rat nasal decolonization model)
K-L: both LysK lytic domains fused to the N-terminus of lysostaphin; SEQ ID NO:5, protein SEQ ID NO:6	7.0	11	3.5	3.5	3.5	3.5	no detectable increase in resistance	unable to significantly reduce the bacterial load			
L: 247 amino acid mature (secreted) lysostaphin, staphylolytic bacteriocin, C-terminal His6 tag; SEQ ID NO:1 [reference compound]	0.77	12	0.58	6.2	1.5	0.39	8 fold				
B1	34	34	16	8.4	20	8.4	2 fold	unable to significantly reduce the bacterial load			
B2	4.4	12	0.37	4.2	5.9	4.0	no detectable increase in resistance		9.4 ± 6.1	98	5-10 fold
